Consider 4 molecules from publication PMC9482650, “Quantitative fragmentomics allow affinity mapping of interactomes” (Nature Communications, 2022).

Among the targets are GRID2IP_2, A4D2P6; FRMPD4, Q14CM0; SCRIB_3, Q14160; GRASP, Q7Z6J2; MAGI2_6, Q86UL8; NHERF4_2, Q86UT5; ARHGEF12, Q9NZN5-2; CASK, O14936; LDB3, O75112; NHERF2_2, Q15599; LNX1_1, Q8TBB1; IL16_1, Q14005; NHERF4_1, Q86UT5-2; MAGI1_1, Q96QZ7; Inadl_9, Q8NI35.
Test in all cases: holdup assay
What all share (design): key: below the threshold = too weak to quantify, mostly under pKd 3.1 to 4

The target of another experiment is T1, PTPN13_1, Q12923.
T1 sequence (Q12923 1088-1188, limits assumed, looked up): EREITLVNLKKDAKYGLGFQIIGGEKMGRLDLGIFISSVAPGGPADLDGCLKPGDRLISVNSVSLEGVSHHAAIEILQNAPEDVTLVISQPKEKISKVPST

Another experiment concerns the target T2, PDZD7_3, Q9H5P4.
T2 sequence (Q9H5P4 857-944, limits assumed, looked up): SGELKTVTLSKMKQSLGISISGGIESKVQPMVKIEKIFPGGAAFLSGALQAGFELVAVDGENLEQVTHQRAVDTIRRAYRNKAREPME

The next experiment addresses T3, GRIP1_4, Q9Y3R0.
T3 sequence (Q9Y3R0 467-571, limits assumed, looked up): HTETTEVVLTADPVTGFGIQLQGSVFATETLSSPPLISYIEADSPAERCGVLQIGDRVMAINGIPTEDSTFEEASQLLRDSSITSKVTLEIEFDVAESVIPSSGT

A further experiment deals with T4, DLG3_3, Q92796.
T4 sequence (Q92796 374-475, limits assumed, looked up): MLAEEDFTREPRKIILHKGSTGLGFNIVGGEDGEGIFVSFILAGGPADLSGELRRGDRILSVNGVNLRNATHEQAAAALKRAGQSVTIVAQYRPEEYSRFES

A further experiment deals with T5, SIPA1L2, Q9P2F8.
T5 sequence (Q9P2F8 945-1036, limits assumed, looked up): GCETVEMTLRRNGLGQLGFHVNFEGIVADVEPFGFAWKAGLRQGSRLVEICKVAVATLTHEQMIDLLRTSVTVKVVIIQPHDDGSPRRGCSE

The next experiment concerns the target T6, MPP2, Q14168.
T6 sequence (Q14168 180-250, limits assumed, looked up): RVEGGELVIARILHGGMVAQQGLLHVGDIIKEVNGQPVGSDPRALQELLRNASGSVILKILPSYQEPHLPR

A further experiment deals with T7, DFNB31_1, Q9P202.
T7 sequence (Q9P202 135-233, limits assumed, looked up): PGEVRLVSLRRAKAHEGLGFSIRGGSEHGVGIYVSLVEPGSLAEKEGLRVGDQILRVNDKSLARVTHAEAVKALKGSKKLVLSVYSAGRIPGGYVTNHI

The target of the next experiment is T8, SHANK1, Q9Y566.
T8 sequence (Q9Y566 658-767, limits assumed, looked up): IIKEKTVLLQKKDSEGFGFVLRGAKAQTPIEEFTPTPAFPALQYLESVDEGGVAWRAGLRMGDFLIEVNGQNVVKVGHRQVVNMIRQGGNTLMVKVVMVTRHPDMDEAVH

For a further experiment, the target named is T9, LNX2_2, Q8N448.
T9 sequence (Q8N448 334-432, limits assumed, looked up): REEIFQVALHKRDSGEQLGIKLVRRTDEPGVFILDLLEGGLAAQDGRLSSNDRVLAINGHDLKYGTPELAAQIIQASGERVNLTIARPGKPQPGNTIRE

In another experiment the target is T10, SNTG2, Q9NY99.
T10 sequence (Q9NY99 68-166, limits assumed, looked up): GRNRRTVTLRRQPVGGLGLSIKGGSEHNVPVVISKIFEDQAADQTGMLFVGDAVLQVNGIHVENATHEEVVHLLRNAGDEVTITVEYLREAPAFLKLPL

The target of another experiment is T11, PARD3B_1, Q8TEW8.
T11 sequence (Q8TEW8 196-299, limits assumed, looked up): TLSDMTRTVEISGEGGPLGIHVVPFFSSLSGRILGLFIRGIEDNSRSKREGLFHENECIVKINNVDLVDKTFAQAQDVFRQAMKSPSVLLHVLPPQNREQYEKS

The mark [1] stands for this setting: plain residues with an end cap or a label only (N-terminal biotin on a linker: ado-ado).
The mark [2] stands for this setting: plain residues with an end cap or a label only (N-terminal biotin on a linker: (peg)3).

Chain of CASK, O14936 (O14936 487-570): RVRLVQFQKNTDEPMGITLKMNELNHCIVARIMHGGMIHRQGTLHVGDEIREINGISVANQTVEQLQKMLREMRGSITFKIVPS
Chain of LNX1_1, Q8TBB1 (Q8TBB1 261-371): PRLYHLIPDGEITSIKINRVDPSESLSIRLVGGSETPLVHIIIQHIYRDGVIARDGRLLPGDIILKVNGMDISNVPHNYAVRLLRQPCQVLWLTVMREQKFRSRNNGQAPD
Chain of IL16_1, Q14005 (Q14005 210-306): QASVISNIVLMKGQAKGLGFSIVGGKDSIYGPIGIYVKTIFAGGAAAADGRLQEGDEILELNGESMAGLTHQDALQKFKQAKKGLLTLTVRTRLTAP
Chain of SCRIB_3, Q14160 (Q14160 999-1103): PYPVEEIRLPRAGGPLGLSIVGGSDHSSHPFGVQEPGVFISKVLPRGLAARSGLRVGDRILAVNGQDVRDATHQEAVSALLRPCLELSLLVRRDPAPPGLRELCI
Chain of NHERF4_1, Q86UT5-2 (Q86UT5 other isoform, or with tags, fused parts or gaps): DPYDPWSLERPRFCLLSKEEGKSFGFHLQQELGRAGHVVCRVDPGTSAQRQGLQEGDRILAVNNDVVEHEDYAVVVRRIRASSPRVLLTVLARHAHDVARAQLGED
Chain of NHERF2_2, Q15599 (Q15599 142-238): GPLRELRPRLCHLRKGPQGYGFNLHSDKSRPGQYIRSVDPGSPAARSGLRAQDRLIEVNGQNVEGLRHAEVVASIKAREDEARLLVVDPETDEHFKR
Chain of GRASP, Q7Z6J2 (Q7Z6J2 96-193): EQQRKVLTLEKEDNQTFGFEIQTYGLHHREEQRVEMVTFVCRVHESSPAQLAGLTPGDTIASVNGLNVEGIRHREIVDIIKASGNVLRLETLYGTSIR
Chain of NHERF4_2, Q86UT5 (Q86UT5 220-308): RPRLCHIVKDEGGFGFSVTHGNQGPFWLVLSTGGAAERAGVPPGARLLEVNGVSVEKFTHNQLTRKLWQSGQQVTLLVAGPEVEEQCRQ
Chain of FRMPD4, Q14CM0 (Q14CM0 67-160): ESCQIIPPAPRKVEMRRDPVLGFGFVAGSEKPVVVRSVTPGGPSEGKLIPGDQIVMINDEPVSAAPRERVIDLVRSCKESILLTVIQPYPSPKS
Chain of MAGI1_1, Q96QZ7 (Q96QZ7 1-106): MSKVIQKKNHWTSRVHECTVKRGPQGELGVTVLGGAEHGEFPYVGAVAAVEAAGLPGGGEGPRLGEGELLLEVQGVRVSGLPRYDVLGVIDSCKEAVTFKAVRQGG
Chain of ARHGEF12, Q9NZN5-2 (Q9NZN5 other isoform, or with tags, fused parts or gaps): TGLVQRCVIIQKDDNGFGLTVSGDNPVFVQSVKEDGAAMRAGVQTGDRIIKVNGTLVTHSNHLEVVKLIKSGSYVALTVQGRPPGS
Chain of LDB3, O75112 (O75112 1-94): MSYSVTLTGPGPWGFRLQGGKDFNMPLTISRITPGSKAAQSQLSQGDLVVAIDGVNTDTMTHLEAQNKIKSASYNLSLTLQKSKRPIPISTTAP
Chain of MAGI2_6, Q86UL8 (Q86UL8 1141-1229): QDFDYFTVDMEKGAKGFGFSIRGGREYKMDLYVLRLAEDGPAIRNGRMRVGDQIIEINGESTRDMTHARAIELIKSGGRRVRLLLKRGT
Chain of GRID2IP_2, A4D2P6 (A4D2P6 272-370): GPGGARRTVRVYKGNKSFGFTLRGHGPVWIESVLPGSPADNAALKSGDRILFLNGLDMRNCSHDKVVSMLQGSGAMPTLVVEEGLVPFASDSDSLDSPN
Chain of Inadl_9, Q8NI35 (Q8NI35 1530-1615): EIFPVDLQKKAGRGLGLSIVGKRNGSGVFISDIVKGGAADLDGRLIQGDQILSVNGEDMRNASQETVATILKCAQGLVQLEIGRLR

The pKd is the negative decadic logarithm of the Kd, by convention in mol/L. VYPNAKVELV [PDLIM4_iso2, P50479;P50479-1]: the pKd entry with GRID2IP_2, A4D2P6 (setting [1]) is “below the threshold”; with FRMPD4, Q14CM0 (setting [1]), “below the threshold”; with SCRIB_3, Q14160 (setting [1]), “below the threshold”; with PTPN13_1, Q12923 (setting [1]) it was “below the threshold”; in the experiment with PDZD7_3, Q9H5P4 (setting [1]), 3.99; in the experiment with GRASP, Q7Z6J2 (setting [1]), “below the threshold”. Also, the pKd result was “below the threshold” with MAGI2_6, Q86UL8 (setting [1]); “below the threshold” in the experiment with NHERF4_2, Q86UT5 (setting [1]); “below the threshold” in the experiment with GRIP1_4, Q9Y3R0 (setting [1]); “below the threshold” with DLG3_3, Q92796 (setting [1]); “below the threshold” with ARHGEF12, Q9NZN5-2 (setting [1]); “below the threshold” in the experiment with CASK, O14936 (setting [1]). Also, the pKd entry was “below the threshold” with SIPA1L2, Q9P2F8 (setting [1]); “below the threshold” with MPP2, Q14168 (setting [1]); “below the threshold” with LDB3, O75112 (setting [1]); “below the threshold” with NHERF2_2, Q15599 (setting [1]); “below the threshold” in the experiment with LNX1_1, Q8TBB1 (setting [1]); “below the threshold” with IL16_1, Q14005 (setting [1]). In addition, the negative logarithm of the Kd (pKd) entry is “below the threshold” in the experiment with DFNB31_1, Q9P202 (setting [1]); “below the threshold” with SHANK1, Q9Y566 (setting [1]); 3.98 with NHERF4_1, Q86UT5-2 (setting [1]); “below the threshold” in the experiment with MAGI1_1, Q96QZ7 (setting [1]); 4.62 with LNX2_2, Q8N448 (setting [1]).
As for KSGKQTMLVV [TRIM29, Q14134;Q14134-2], the pKd entry was “below the threshold” with GRID2IP_2, A4D2P6 (setting [1]); “below the threshold” with SNTG2, Q9NY99 (setting [1]); “below the threshold” with FRMPD4, Q14CM0 (setting [1]); “below the threshold” with SCRIB_3, Q14160 (setting [1]); “below the threshold” with PTPN13_1, Q12923 (setting [1]); “below the threshold” with PDZD7_3, Q9H5P4 (setting [1]). Further, the pKd result in the experiment with GRASP, Q7Z6J2 (setting [1]) is listed as “below the threshold”; in the experiment with MAGI2_6, Q86UL8 (setting [1]) it was “below the threshold”; with NHERF4_2, Q86UT5 (setting [1]), “below the threshold”; with GRIP1_4, Q9Y3R0 (setting [1]), “below the threshold”; with PARD3B_1, Q8TEW8 (setting [1]) it was “below the threshold”; with SIPA1L2, Q9P2F8 (setting [1]), “below the threshold”. Moreover, the pKd result with MPP2, Q14168 (setting [1]) is given as “below the threshold”; with LDB3, O75112 (setting [1]) it was “below the threshold”; in the experiment with NHERF2_2, Q15599 (setting [1]), “below the threshold”; with LNX1_1, Q8TBB1 (setting [1]), “below the threshold”; with IL16_1, Q14005 (setting [1]), “below the threshold”; in the experiment with DFNB31_1, Q9P202 (setting [1]), “below the threshold”. The pKd result with MAGI1_1, Q96QZ7 (setting [1]) was “below the threshold”; with LNX2_2, Q8N448 (setting [1]), 5.19.
For the molecule LPAHHNATRL [SLC34A1, Q06495;Q06495-1], the negative-log Kd (pKd) in the experiment with GRID2IP_2, A4D2P6 (setting [1]) is 4.13; in the experiment with SNTG2, Q9NY99 (setting [1]), 4.15; with FRMPD4, Q14CM0 (setting [1]) it was 4.31; with SCRIB_3, Q14160 (setting [1]), 4.02; with PTPN13_1, Q12923 (setting [1]) it was “below the threshold”; with PDZD7_3, Q9H5P4 (setting [1]) it was 4.43. In addition, the pKd was 4.26 with GRASP, Q7Z6J2 (setting [1]); “below the threshold” with MAGI2_6, Q86UL8 (setting [1]); “below the threshold” with NHERF4_2, Q86UT5 (setting [1]); “below the threshold” with GRIP1_4, Q9Y3R0 (setting [1]); “below the threshold” with DLG3_3, Q92796 (setting [1]); 4.62 with PARD3B_1, Q8TEW8 (setting [1]). Moreover, the pKd with ARHGEF12, Q9NZN5-2 (setting [1]) was 4.44; with CASK, O14936 (setting [1]), “below the threshold”; in the experiment with SIPA1L2, Q9P2F8 (setting [1]), “below the threshold”; with MPP2, Q14168 (setting [1]) it was “below the threshold”; with LDB3, O75112 (setting [1]), “below the threshold”; in the experiment with NHERF2_2, Q15599 (setting [1]), 4.83. For the same molecule, the pKd entry in the experiment with IL16_1, Q14005 (setting [1]) was “below the threshold”; with SHANK1, Q9Y566 (setting [1]) it was 5.39; in the experiment with NHERF4_1, Q86UT5-2 (setting [1]), 4.01; with MAGI1_1, Q96QZ7 (setting [1]), “below the threshold”; with LNX2_2, Q8N448 (setting [1]), “below the threshold”; with Inadl_9, Q8NI35 (setting [1]), “below the threshold”.
For the molecule NLNSSEGVPDLLV [SARS-CoV-E, P59637], the pKd entry with GRID2IP_2, A4D2P6 (setting [2]) was “below the threshold”; with SNTG2, Q9NY99 (setting [2]), “below the threshold”; with FRMPD4, Q14CM0 (setting [2]) it was “below the threshold”; with SCRIB_3, Q14160 (setting [2]) it was “below the threshold”; with PTPN13_1, Q12923 (setting [2]), “below the threshold”; in the experiment with PDZD7_3, Q9H5P4 (setting [2]), “below the threshold”. In addition, the pKd result with GRASP, Q7Z6J2 (setting [2]) is on record as “below the threshold”; with MAGI2_6, Q86UL8 (setting [2]), “below the threshold”; with NHERF4_2, Q86UT5 (setting [2]), “below the threshold”; with GRIP1_4, Q9Y3R0 (setting [2]) it was “below the threshold”; in the experiment with DLG3_3, Q92796 (setting [2]), “below the threshold”; with PARD3B_1, Q8TEW8 (setting [2]) it was “below the threshold”. In addition, the pKd entry is “below the threshold” in the experiment with ARHGEF12, Q9NZN5-2 (setting [2]); “below the threshold” with CASK, O14936 (setting [2]); “below the threshold” with SIPA1L2, Q9P2F8 (setting [2]); “below the threshold” with MPP2, Q14168 (setting [2]); “below the threshold” with LDB3, O75112 (setting [2]); “below the threshold” with NHERF2_2, Q15599 (setting [2]). Besides, the negative logarithm of the Kd (pKd) entry with LNX1_1, Q8TBB1 (setting [2]) is on record as “below the threshold”; with IL16_1, Q14005 (setting [2]) it was “below the threshold”; with DFNB31_1, Q9P202 (setting [2]), “below the threshold”; in the experiment with SHANK1, Q9Y566 (setting [2]) it was “below the threshold”; with NHERF4_1, Q86UT5-2 (setting [2]) it was “below the threshold”; in the experiment with MAGI1_1, Q96QZ7 (setting [2]), “below the threshold”. For the same molecule, the pKd is 4.24 in the experiment with LNX2_2, Q8N448 (setting [2]) and “below the threshold” in the experiment with Inadl_9, Q8NI35 (setting [2]).
